Measurements published in patent publication US20040265797A1 (CHIRON, published 2004).
Square brackets hold non-standard residues; d marks the D form. Ends that are not written are not given here.

Experiments:
[1] = target: T1, Soluble recombinant human urokinase receptor (suPAR) (human, UniProt Q03405 23-299, limits assumed, biotinylated in the plate assays (sites not given)); assay: competition with phage displaying peptide 9 for soluble uPAR
T1 construct: Only called a soluble truncated form of the urokinase receptor; also called soluble uPAR; biotinylated suPAR
T1 sequence (Q03405 23-299 limits assumed): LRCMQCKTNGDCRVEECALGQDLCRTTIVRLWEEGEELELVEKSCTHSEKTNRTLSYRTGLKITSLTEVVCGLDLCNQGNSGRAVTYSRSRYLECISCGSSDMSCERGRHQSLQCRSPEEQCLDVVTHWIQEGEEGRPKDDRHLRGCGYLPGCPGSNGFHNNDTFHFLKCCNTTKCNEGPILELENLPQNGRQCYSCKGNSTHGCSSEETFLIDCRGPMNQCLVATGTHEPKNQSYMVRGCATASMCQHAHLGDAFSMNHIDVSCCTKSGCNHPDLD
Method: (§1) The final anti-M13 conjugate dilution was 1:4000.
(§2) These concentrations were calculated based on the synthesis reactions.

[2] = target: T1, Soluble recombinant human urokinase …; assay: competition with phage displaying peptide 9 for soluble uPAR; * quantity tested could have been lower
Method: as §1, §2

[3] = target: T1, Soluble recombinant human urokinase …; assay: alanine scan of peptide 9; competition with phage displaying peptide 9 for soluble uPAR
Method: Streptavidin, 100 μl (0.1 mg/ml) in 50 mM Na₂CO₃, pH 9.6, was added to MaxiSorp wells (Nunc), incubated overnight at 4 C, and then washed with PBS/BSA. […] Competitive peptide inhibitors were added to the wells immediately prior to addition of the bacteriophage. The wells were incubated for one hour at room temperature, then washed and bound bacteriophage eluted with 6M urea in 0.1N HCl, pH 2.5. After 15 minutes, the urea eluate was brought to neutral pH by addition of 2M Tris base and the bacteriophage titers of input stocks and elutions measured by plaque formation assay. Results were expressed as the percent of input bacteriophage which bind to the wells. Alternatively, the amount of bacteriophage was determined in an ELISA where phage were preincubated with HRP-conjugated anti-M13 antibody for 30 minutes at room temperature before dispensing into wells prepared as above and incubated for one hour at room temperature. The final anti-M13 conjugate dilution was 1:4000. After washing, TMB substrate (100 μl/well) was added and color development was stopped with 0.8N H₂SO₄ (100 μl/well). The absorbance at 450 nm was then measured in a 96 well plate reader.
Approximately 10⁸ plaque forming units of the phage were used in the assay.

Row | Binder | % Inhibition at 5 uM [1] | % Inhibition at 2.5 uM [2] | binding result [3] | % Inhibition at 2.5 uM [1]
1 | [dA]EFFKLGPNGYVYLHSA-NH2 (N-terminus assumed; SMILES CC(C)C[C@H](NC(=O)[C@H](CCCCN)NC(=O)[C@H](Cc1ccccc1)NC(=O)[C@H](Cc1ccccc1)NC(=O)[C@H](CCC(=O)O)NC(=O)[C@@H](C)N)C(=O)NCC(=O)N1CCC[C@H]1C(=O)N[C@@H](CC(N)=O)C(=O)NCC(=O)N[C@@H](Cc1ccc(O)cc1)C(=O)N[C@H](C(=O)N[C@@H](Cc1ccc(O)cc1)C(=O)N[C@@H](CC(C)C)C(=O)N[C@@H](Cc1c[nH]cn1)C(=O)N[C@@H](CO)C(=O)N[C@@H](C)C(N)=O)C(C)C) [Analog 82] | 41% | 24% |  | 
2 | AEFFKLG[dP]NGYVYLHSA-NH2 (N-terminus assumed; SMILES CC(C)C[C@H](NC(=O)[C@H](CCCCN)NC(=O)[C@H](Cc1ccccc1)NC(=O)[C@H](Cc1ccccc1)NC(=O)[C@H](CCC(=O)O)NC(=O)[C@H](C)N)C(=O)NCC(=O)N1CCC[C@@H]1C(=O)N[C@@H](CC(N)=O)C(=O)NCC(=O)N[C@@H](Cc1ccc(O)cc1)C(=O)N[C@H](C(=O)N[C@@H](Cc1ccc(O)cc1)C(=O)N[C@@H](CC(C)C)C(=O)N[C@@H](Cc1c[nH]cn1)C(=O)N[C@@H](CO)C(=O)N[C@@H](C)C(N)=O)C(C)C) [Analog 88] | 76% | 80% |  | 
3 | AEFFKAGPNGYVYLHSA-NH2 [Analog 69 (peptide 9, Leu at position 6 to alanine)] |  |  | no binding | 
4 | AEFFKLGPNGYVYLHS[dA]-NH2 (N-terminus assumed; SMILES CC(C)C[C@H](NC(=O)[C@H](CCCCN)NC(=O)[C@H](Cc1ccccc1)NC(=O)[C@H](Cc1ccccc1)NC(=O)[C@H](CCC(=O)O)NC(=O)[C@H](C)N)C(=O)NCC(=O)N1CCC[C@H]1C(=O)N[C@@H](CC(N)=O)C(=O)NCC(=O)N[C@@H](Cc1ccc(O)cc1)C(=O)N[C@H](C(=O)N[C@@H](Cc1ccc(O)cc1)C(=O)N[C@@H](CC(C)C)C(=O)N[C@@H](Cc1c[nH]cn1)C(=O)N[C@@H](CO)C(=O)N[C@H](C)C(N)=O)C(C)C) [Analog 96] | 40% | 38% |  | 
5 | AEFFKLGPNGYVYLH[dS]A-NH2 (N-terminus assumed; SMILES CC(C)C[C@H](NC(=O)[C@H](CCCCN)NC(=O)[C@H](Cc1ccccc1)NC(=O)[C@H](Cc1ccccc1)NC(=O)[C@H](CCC(=O)O)NC(=O)[C@H](C)N)C(=O)NCC(=O)N1CCC[C@H]1C(=O)N[C@@H](CC(N)=O)C(=O)NCC(=O)N[C@@H](Cc1ccc(O)cc1)C(=O)N[C@H](C(=O)N[C@@H](Cc1ccc(O)cc1)C(=O)N[C@@H](CC(C)C)C(=O)N[C@@H](Cc1c[nH]cn1)C(=O)N[C@H](CO)C(=O)N[C@@H](C)C(N)=O)C(C)C) [Analog 95] | 59% |  |  | 47%
6 | AEFFKLGPNGYVYL[dH]SA-NH2 (N-terminus assumed; SMILES CC(C)C[C@H](NC(=O)[C@H](CCCCN)NC(=O)[C@H](Cc1ccccc1)NC(=O)[C@H](Cc1ccccc1)NC(=O)[C@H](CCC(=O)O)NC(=O)[C@H](C)N)C(=O)NCC(=O)N1CCC[C@H]1C(=O)N[C@@H](CC(N)=O)C(=O)NCC(=O)N[C@@H](Cc1ccc(O)cc1)C(=O)N[C@H](C(=O)N[C@@H](Cc1ccc(O)cc1)C(=O)N[C@@H](CC(C)C)C(=O)N[C@H](Cc1c[nH]cn1)C(=O)N[C@@H](CO)C(=O)N[C@@H](C)C(N)=O)C(C)C) [Analog 94] | 41% |  |  | 36%

The next lines start with the values.

Row | % Inhibition at 5 uM [1] | % Inhibition at 2.5 uM [2] | binding result [3] | % Inhibition at 2.5 uM [1] | Binder
7 |  |  | no binding |  | AEFFKLGPNGYVALHSA-NH2 [Analog 76 (peptide 9, Tyr at position 13 to alanine)]
8 |  |  | no binding |  | AEFFKLGPNGYAYLHSA-NH2 [Analog 75 (peptide 9, Val at position 12 to alanine)]
9 |  |  | no binding |  | AEFFKLGPNGAVYLHSA-NH2 [Analog 74 (peptide 9, Tyr at position 11 to alanine)]
